{"source": "patent US11274129B2", "about": "“Methods for protein tyrosine phosphorylation profiling with variant SH2 domains” (priority 2016, dated 2022)", "molecules": {"B1": {"name": "Triple mutant: TrM human Src SH2 domain variant with Thr183Val, Cys188Ala and Lys206Leu; His6/GST-tagged form SEQ ID NO: 11 (protein)", "chain": "DSIQAEEWYFGKITRRESERLLLNAENPRGTFLVRESETVKGAYALSVSDFDNAKGLNVKHYLIRKLDSGGFYITSRTQFNSLQQLVAYYSKHADGLCHRLTTVCPTSK", "modifications": "SH2 protein domain; TrM human Src SH2 domain"}}, "tested_on": "pTyr-including peptides from pervanadate-treated Jurkat cells", "assay": "Enrichment of pTyr-including peptides from pervanadate-treated Jurkat cells by affinity reagents, 1D LC-MS/MS", "set-up": "species or system human", "details": "3 mg Jurkat peptides", "experimental": "Experiments were conducted to determine the relative efficacy of the variant Src SH2 domains and commonly used anti-pTyr antibodies as affinity reagents for pTyr-including peptides from biological samples. His6/GST-tagged TrM Src SH2 domain (SEQ ID NO: 11) and His6-tagged QuadM Src SH2 domain (SEQ ID NO: 13), as well as anti-pTyr antibodies, were prepared in functionally-equivalent molar amounts by using half the molar amount of the antibodies relative to the SH2 domain variants given that each antibody molecule has two binding sites for its antigen.\nThe first experiment tested the relative ability of the following affinity reagents to extract pTyr-including peptides from a peptide mixture prepared from Jurkat cells: a His6/GST-tagged TrM Src SH2 (SEQ ID NO: 11), a His6-tagged QuadM Src SH2 (SEQ ID NO: 13), the anti-pTyr antibody 4G10 (agarose conjugate, obtained from Millipore), and a mixture of commercially-available anti-pTyr antibodies. […] The two SH2 affinity reagents were also tested at a 30× amount; the antibodies were not tested at a 30× amount due to the prohibitive cost of doing so. The purified SH2 affinity reagents were prepared as described in Example 1. The antibody mixture contained 4G10 (as above), PY99 (obtained from Santa Cruz Biotechnology), and P-Tyr-100 (slurry of PTMScan® Phospho-Tyrosine Mouse mAb, obtained from Cell Signaling Technology). Since the concentration of P-Tyr-100 is unknown, the amount was used as recommended by the vendor (i.e., 4 μL for 1 mg peptide digest).\nFIG. 2A presents a schematic of the experimental design. Each amount of His6-tagged SH2 domain variant or antibody was subjected to a binding experiment with 3 mg of a peptide mixture prepared from pervanadate-treated Jurkat cells.\nJurkat cells (obtained from ATCC) were cultured in a humidified atmosphere of 5% CO2 at 37° C. in Roswell Park Memorial Institute 1640 medium (RPMI-1640) supplemented with 10% bovine serum and 100 U/mL of streptomycin and penicillin.\nThe cells were again collected by centrifugation. The cell pellets were gently homogenized in an ice-cold lysis buffer containing 8 M urea, 50 mM tris(hydroxymethyl)aminomethane (Tris)-HCl (pH 7.4), 2% protease inhibitor cocktail (v/v, obtained from Sigma-Aldrich), 1% Triton X-100 (v/v), 1 mM NaF, and 1 mM Na3VO4, followed by sonication at 400 W for 120 s. After centrifugation at 25,000 g for 1 h, proteins were precipitated in ice-cold acetone/ethanol/acetic acid (50/50/0.1, V/V/V) solution. Subsequently, the proteins were diluted in reducing buffer containing 100 mM triethylammonium bicarbonate (TEAB) buffer (pH 8.2) and 8 M urea, and the final protein concentration was determined by Bradford assay. The protein suspension was reduced in 10 mM dithiothreitol (DTT) at 37° C. for 2 h, and it was then alkylated in 20 mM iodoacetamide (IAA) in darkness at room temperature for another 30 min. Trypsin digestion was performed at 37° C. overnight with an enzyme-to-protein ratio of 1/25 (w/w). The resulting peptide mixture was stored at −80° C. for further analysis.\nDesalted Jurkat peptides (30 mg) were dissolved in ice-cold immunoaffinity purification (IAP) buffer and then split into 10 aliquots with 3 mg of Jurkat peptides each. Binding experiments were performed with the amounts of antibody (1×, 5×) or SH2 domain variant (1×, 5×, 30×) set out in Table 1 and FIG. 2A.\nFor antibody-based enrichment, 4G10 or the antibody mixture was incubated with the sample at 4° C. overnight while rotating. The beads were washed three times with ice-cold IAP buffer and twice with ice-cold water. To release the bound peptides, the beads were eluted twice with 200 μL 0.15% trifluoroacetic acid (TFA) for 15 min at room temperature.\nFor SH2-based enrichment, Ni-NTA beads containing the purified SH2 proteins were washed extensively in twenty column volumes of PBS buffer (pH 7.0) containing 20 mM imidazole. […] The washed beads were incubated with the peptide mixture at 4° C. overnight while rotating. […]"}
{"molecule": "B1", "values": [{"measurement": "Number of pTyr sites identified", "setting": "0.375 nmol (1x) pTyr-binding sites", "value": 578}, {"measurement": "Number of pTyr sites identified", "setting": "1.875 nmol (5x) pTyr-binding sites", "value": 1060}, {"measurement": "Number of pTyr sites identified", "setting": "11.25 nmol (30x) pTyr-binding sites", "value": 1165}]}
